Experimental data as given in publication PMC11287265.

Molecular target: SHP2 N-terminal SH2 domain, T42A (human)
Assay: fluorescence polarisation

Work on “fluorescent phosphopeptide derived from pTyr1179 of insulin receptor substrate 1 (IRS-1)” yielded a fold tighter binding against N-SH2 WT of 5 fold.
